Data reported in PMC10253715.

Biological target: CD9-EGFP-FRB (UniProt P21926)

luciferase activity in EVs released from co-transfected HEK-293 cells, rapamycin dose series for 24 h (rapamycin is the bridging compound): 3 fold
Substance: mCherry-FKBP12-luciferase
